Patent publication US20170073386A1 (AstraZeneca / MedImmune, published 2017)

Key:
human GITR-Fc [1] = target: T1, human GITR-Fc (human, UniProt Q9Y5U5 26-162, conjugated with europium cryptate in the HTRF assays); experiment: HTRF competition; competitor GITRL-HA on GITR-Fc
T1 construct: also called hGITR-Fc; hGITRFc; not shown: Fc domain of hIgG1
T1 sequence: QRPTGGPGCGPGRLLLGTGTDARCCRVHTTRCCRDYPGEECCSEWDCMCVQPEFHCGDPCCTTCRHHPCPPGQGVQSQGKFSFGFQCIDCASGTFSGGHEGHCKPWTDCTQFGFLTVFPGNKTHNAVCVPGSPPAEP
Method: (§1) The hexameric GITRL FP molecules were titrated into an HTRF assay in which binding of GITRL-HA (hemagglutinin tag) to GITR-Fc was measured. The human GITR Fc was conjugated with europium cryptate and an anti-HA antibody conjugated with XL665 was used to detect the GITRL-HA protein. IC₅₀ values were determined by curve fitting the analyzed data to a four parameter logistic equation with Prism 5.01 software (GraphPad).
The effect of a hexameric GITRL IgG1 FP having the monomeric GITRL IgG1 FP subunit sequence of SEQ ID NO: 6 on human GITRL binding to human GITR was determined using a Homogeneous Time Resolved Fluorescence (HTRF) assay. The GITRL IgG1 FP was titrated into an HTRF assay in which binding of GITRL-HA (hemagglutinin tag) to GITR-Fc was measured. The human GITR-Fc was conjugated with europium cryptate and an anti-HA antibody conjugated with XL665 was used to detect the GITRL-HA protein. IC₅₀ values were determined by curve fitting the analyzed data to a four parameter logistic equation with Prism 6.0x software (GraphPad).

[2] = target: T2, human GITR expressed on cells (human, UniProt Q9Y5U5 26-241); experiment: cell-based or functional assay
T2 sequence: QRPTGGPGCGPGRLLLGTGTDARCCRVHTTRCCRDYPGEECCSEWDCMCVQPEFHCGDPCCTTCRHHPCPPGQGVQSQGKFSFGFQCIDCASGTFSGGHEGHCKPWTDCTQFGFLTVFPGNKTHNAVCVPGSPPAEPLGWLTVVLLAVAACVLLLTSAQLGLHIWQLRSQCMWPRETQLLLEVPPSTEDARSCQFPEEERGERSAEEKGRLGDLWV

human GITR-Fc [3] = target: T1, human GITR-Fc; experiment: HTRF competition; competitor GITRL-HA on GITR-Fc; remark: listed apart in the source
Method: The effect of the hexameric GITRL FP molecules on human GITRL binding to human GITR was determined using a Homogeneous Time Resolved Fluorescence (HTRF) assay.
as §1

B1: hexameric GITRL FP (Langerin wt) (Fc fusion, not shown: a dimerising Fc or GST; small tags and cut ends)
chain (part 1 of 2): ASALNTKIRALQGSLENMSKLLKRQNDILQVVS
chain (part 2 of 2): LQLETAKEPCMAKFGPLPSKWQMASSEPPCVNKVSDWKLEILQNGLYLIYGQVAPNANYNDVAPFEVRLYKNKDMIQTLTNKSKIQNVGGTYELHVGDTIDLIFNSEHQVLKNNTYWGIILLANPQFIS
- fold lower potency than GITRL FP (GCN4) (human GITR-Fc [1]): 8 fold
- EC50 (nM), human GITR transfected NF-κB luciferase gene reporter cell line [2]: 1.54 nM
- IC50 (human GITR-Fc [3]): 8.05 nM
